Experiment [1] deals with Xenopus laevis PP1c (XePP1c) (Xenopus laevis (endogenous in oocytes)).
The target in experiment [2] is PfPP1c (Plasmodium falciparum Protein Phosphatase 1 catalytic subunit, recombinant) (Plasmodium falciparum) (UniProt Q8ILV1).
Experiment [3] has as its target Xenopus laevis PP1c (XePP1c) (Xenopus laevis (endogenous in oocytes)). The source holds these as a separate data set.
Experiment [4] has the same target. The source holds these as a separate data set.

As to “PbRpt3 ATP-binding site mutant (HA-tagged PbRpt3 substituted for alanines in positions K188, D241, N288 and Q356) (natural protein)”, the percentage of GVBD of progesterone-treated Xenopus oocytes microinjected with PbRpt3 cRNA mutated for the ATP-binding sites (PbRpt3 1.7%, PG-treated oocytes 80.8%) in experiment [1] was found to be 39.2 % GVBD.

Regarding “PfI2 (inhibitor of PP1c, Plasmodium falciparum) (natural protein)”, the PfPP1c phosphatase activity on pNPP; 37.5 to 600 pmol PfI2 with 1 µg PfPP1c; value at 600 pmol in experiment [2] came to 60%.

“PbRpt3-30 kDa (recombinant truncated PbRpt3, aa 131-395) (domain or fragment)”: the PfPP1c phosphatase activity on pNPP; 37.5 to 600 pmol PbRpt3-30 kDa preincubated with 1 µg PfPP1c; value at 600 pmol (% PP1c activity) in experiment [2] is > 400.

In experiment [3], “PbRpt3-KATA (HA-tagged PbRpt3 mutated 200-KVTF-203 to 200-KATA-203) (natural protein)” came in with a percentage of GVBD of progesterone-treated Xenopus oocytes microinjected with PbRpt3-KATA cRNA (control 80%) of 26.6 % GVBD.

Substance “PbRpt3-KATA/RKAEA (HA-tagged PbRpt3 with both RVxF motifs mutated) (natural protein)” returned a percentage of GVBD of progesterone-treated Xenopus oocytes microinjected with PbRpt3-KATA/RKAEA cRNA (control 80%) in experiment [3] of 76 % GVBD.

For the substance “PbRpt3-RKAEA (HA-tagged PbRpt3 mutated 305-RKIEF-309 to 305-RKAEA-309) (natural protein)”, the percentage of GVBD of progesterone-treated Xenopus oocytes microinjected with PbRpt3-RKAEA cRNA (control 80%) in experiment [3] was found to be 23.3 % GVBD.

“HA-tagged PbRpt3 protein (full-size 45 kDa native PbRpt3 translated from microinjected cRNA in Xenopus oocytes) (from UniProt A0A509AIQ8 1-395) (natural protein)” showed a percentage of GVBD of progesterone-treated Xenopus oocytes microinjected with PbRpt3 cRNA (control 80%) in experiment [3] of 1.7 % GVBD. In experiment [4], this substance came in with a percentage of GVBD of progesterone-treated Xenopus oocytes microinjected with PbRpt3 cRNA (PG alone 86.7%) of 1.7 % GVBD.
